Patent US20040219635A1 (Dana-Farber, published 2004)
Substitutions are numbered along the chain they refer to. Ends that are not written are not given here.

What was measured:
[1] = target: T1, pVHL (form used not given) (UniProt P40337 1-213); assay: binding to GST-ODD after phosphatase treatment; unpublished data (16)
T1 construct: also called wild-type pVHL

[2] = target: T2, immobilized GST-pVHL, elongin B, elongin C complexes (UniProt P40337 54-213; Q15370 1-118; Q15369 17-112); assay: capture of 35S-labeled protein on immobilized GST-VBC
T2 construct: also called GST-VBC; GST-VHL, elongin B, elongin C complexes

HA-pVHL [3] = target: T3, HA-pVHL (UniProt P40337 1-213); assay: peptide elution of HIF from anti-HA immunoprecipitates of HA-pVHL (ts20 cells); failure to displace
T3 construct: In the cells it sits in complexes; also called 35S-HA-pVHL; 35S-labeled pVHL
T3 sequence (P40337 whole entry): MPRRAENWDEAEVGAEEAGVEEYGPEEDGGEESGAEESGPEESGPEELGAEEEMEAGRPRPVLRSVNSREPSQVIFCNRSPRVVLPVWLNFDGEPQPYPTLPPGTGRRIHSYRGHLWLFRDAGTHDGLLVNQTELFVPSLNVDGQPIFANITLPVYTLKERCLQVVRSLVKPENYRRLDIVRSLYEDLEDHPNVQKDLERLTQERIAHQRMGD

HA-pVHL [4] = target: T3, HA-pVHL; assay: peptide binding assay; unpublished data (16)

T1 sequence (P40337 whole entry): as above

B1: GST-HIF1α(530-652) produced in E. coli and preincubated with rabbit reticulocyte lysate (other, UniProt Q16665 530-652, looked up)
chain: EFKLELVEKLFAEDTEAKNPFSTQDTDLDLEMLAPYIPMDDDFQLRSFDQLSPLESSSASPESASPQSTVTVFQQTQIQEPTANATTTTATTDELKTVTKDRMEDIKILIASPSPTHIHKETT
modifications: modified by a factor in reticulocyte lysate; later examples identify the modification as hydroxylation of Pro 564
notes: range 530-652; Incubated with rabbit reticulocyte lysate for 90 min at 30° C; also called GST-ODD; not shown: glutathione S-transferase (GST) fusion partner
B1: binds [1].

B2: Pro564Ala Gal4-HA-HIF1α(530-652) (other)
chain: B1 chain with P35A
notes: range 530-652; also called Gal4-ODD Pro564Ala; not shown: Gal4 portion
B2: no binding [2].

B3: Leu562Ala Gal4-HA-HIF1α(530-652) (other)
chain: B1 chain with L33A
notes: range 530-652; also called Gal4-ODD Leu562Ala; not shown: Gal4 portion
B3: no binding [2].

DLDLEMLAAYIPMDDDFQLR (peptide, UniProt Q16665 556-575, looked up, also: biotinylated (site not given here)) [biotinylated HIF1α(556-575) Pro564Ala peptide]: no binding (tested: 7 µg of peptide in 65 µl of PBS) (HA-pVHL [3]).

B4: biotinylated HIF (556-575) peptide with Met561 and Met568 replaced with alanine (peptide, UniProt Q16665 556-575, looked up)
peptide: DLDLEALAPYIPADDDFQLR
modifications: also: biotinylated (site not given here)
notes: Made for the mass spectrometry experiments
B4: binds (HA-pVHL [4]).
